The text below walks through data of the nanobody polyreactivity screen of Harvey et al. (2022).

A short description of the data set: yeast display, Sf9 membrane polyspecificity reagent, FACS + sequencing; frameworks hold sequencing errors. The essentials: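 Sorting gates, low and high (top ~1%), were placed on anti-HA fluorescence to track expression and on streptavidin fluorescence to track reagent binding. A clone's polyreactivity label is taken from the gate it came out of. The reagent was 10% biotinylated, detergent-solubilized Sf9 membrane, applied for 1 hour at 4 °C to galactose-induced yeast display cells.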
In the case of “QVQLVESGGGLVQAGGSLRLSCAASGSIFAANVMGWYRQAPGKERELVAVISGGGGRTFYADSVKGRFTISRDNAKNTVYLQMNSLKPEDTAVYYCAADRRDRSPYYYWGQGTQVTVSS”, the “polyreactivity (PSR sort gate)” value was “high polyreactivity”.
In the case of “QVQLVESGGGLVQAGGSLRLSCAASGSIFAAYAMGWYRQAPGKERELVAAIDRGGSTDYADSVKGRFTISRDNAKNTVYLQMNSLKPEDTAVYYCAKGYDYYVRRYYYWGQGTQVTVSS”, the “polyreactivity (PSR sort gate)” value is recorded as “high polyreactivity”.
“QVQLVESGGGLVQAGGSLRLSCAASGSIFAAYAMGWYRQAPGKERELVAAITSGGGTYYADSVKGRFTISRDNAKNTVYLQMNSLKPEDTAGYYCNAGNTYNRVIWPYYYWGQGTQVTVSS”: the “polyreactivity (PSR sort gate)” value is “high polyreactivity”.
“QVQLVESGGGLVQAGGSLRLSCAASGSIFAAYAMGWYRQAPGKERELVAVINSRGGITSYADSVKGRFTISRDNAKNTVYLQMNSLKPEDTAVYYFAARTWYSWRYDYWGQGTQVTVSS”: the “polyreactivity (PSR sort gate)” value is “high polyreactivity”.
For “QVQLVESGGGLVQAGGSLRLSCAASGSIFADNTMGWSRQSPGKERELVAAITSSGRTYYADSVKGRFTISRDNAKNTVYLQMNSLKPEDTAVYYCAAVIYFHDYSPYYYWGQGTQVTVSS” the value was “high polyreactivity”; for “QVQLVESGGGLVQAGGSLRLSCAASGSIFADYAMGWYRQAPGKERELVAAITSGGSTYYADSVKGRFTISRDNAKNTVYLQKNSLKPEDTAVYYCAADWAFSRFAYQTDIYEYWGQGTQVTVSS”, “low polyreactivity”.
Take “QVQLVESGGGLVQAGGSLRLSCAASGSIFAFYAMGWYRQSPGKERELVAAISYNGGSTYYADSVKVRFTLSRDNAKNTVYLQMNSLEPEDTAVYYCAAYHFSAPSEYDYWGQGTQVTVSS”: the “polyreactivity (PSR sort gate)” value is “low polyreactivity”.
In the case of “QVQLVESGGGLVQAGGSLRLSCAASGSIFAGNAMGWYRQAPGKERELVAGITFGDDSTYYADSVKGRFTISRDNAKNTVYLQMNSLKPEDTAVYYCATDLHPYNYYFYHYWVDAAYDYWGQGTQVTVSS”, the “polyreactivity (PSR sort gate)” value is given as “low polyreactivity”.
For “QVQLVESGGGLVQAGGSLRLSCAASGSIFAHYAMGWYRQAPGKARELVAAISRGGGSTYYSDSVKGRFTISRDNAKNTVYLQMNSLKPEDTAVYYCAVVRSYRGINDYWGQGTQVTVTS” the value was “low polyreactivity”.
On to “QVQLVESGGGLVQAGGSLRLSCAASGSIFAKNAMGWYRQAPGKERELVAGIDFSGGSTYYADSVKGRFTISRDNAKNTVYLQMNSLKPEDTAVDYCAADWAYKYELDYWGQGTQVTVSS”, for which the “polyreactivity (PSR sort gate)” value is reported as “low polyreactivity”.
In the case of “QVQLVESGGGLVQAGGSLRLSCAASGSIFAKYAMGWYRQAPGKEREFVAAIRASGGRTYYADSVKGRFTISRDNAKNTVYLQMNSLKPEDTAVYYCAAHLYSSRSDYDGPRSRRNYWGQGTQVTVSS”, the “polyreactivity (PSR sort gate)” value was “high polyreactivity”.
For “QVQLVESGGGLVQAGGSLRLSCAASGSIFAKYGMGWYRQAPGKEREFVAAISKSGGITYYADSVKGRFTISRDNAKNTVYLQMNSLKPEDTAVYYCADSYVSYRKRDDYWGQGTQVTVSS”, the “polyreactivity (PSR sort gate)” value is listed as “high polyreactivity”.
With “QVQLVESGGGLVQAGGSLRLSCAASGSIFALYAMGWYRQAAGKERELVAAITKGGGSTYYADSVKGRFTISRDNAKNTVYLQMNSLKPEDTAVYYCAARGRYSAPDYGYWGQGTQVTVSS” the entry was “high polyreactivity”; with “QVQLVESGGGLVQAGGSLRLSCAASGSIFALYAMGWYRQAPGKERELVAAISNTGGSTYYADSVKGRFTISRDNAKNTVYLQMNSLKPEDTAVYYCAARKARSSPRYYYWGQGTQVTVSS”, “high polyreactivity”.
On to “QVQLVESGGGLVQAGGSLRLSCAASGSIFALYAMGWYRQAPGKERELVAAISRRGGRTYYADSVKGRFTISRDNAKNTVYLQMNSLIPEDTAVYYCNARGYNVPHPNRYDYWGQGTQVTVSS”, for which the “polyreactivity (PSR sort gate)” value is recorded as “high polyreactivity”.
Consider “QVQLVESGGGLVQAGGSLRLSCAASGSIFAPNAMGWYRQAPGKERELVARISRTGGSTNYADSVKGRFTISRDNAKNTVYLQMNSLKPEDTAVYYCNTQYSYSSAPPFWYTQMYYWGQGTQVTVSS”, for which the “polyreactivity (PSR sort gate)” value is “high polyreactivity”.
Take “QVQLVESGGGLVQAGGSLRLSCAASGSIFAPYAMGWYRQAPGKERELVATISSIGTSTYYADSVKGRFTISRDNAKNTVYLQMNSLKPEDTAVYYCAADQSGGYPDNYWGQGTQVTVSS”: the “polyreactivity (PSR sort gate)” value was “low polyreactivity”.
With “QVQLVESGGGLVQAGGSLRLSCAASGSIFAQNAMGWYRQAPGKERELVAAITSGGSTYYADSVKGRFTISRDNAKNTVYLQMNSLKPEDTAVYYCAARGWGPFYQYYYLGQGTQVTVSS” the entry was “high polyreactivity”; with “QVQLVESGGGLVQAGGSLRLSCAASGSIFAQYTMGWYRQAPGKERELVAVISFRGGSTYYADSVKGRFTISRDNAKNTVYLQMNSLKPEDTAVYYCATVGTYPGYGEFDYWGQGTQVTVSS”, “low polyreactivity”; with “QVQLVESGGGLVQAGGSLRLSCAASGSIFARFAMGWYRQAPGKERELVAAISGRGGSTYYADSVKGRFTISRDNAKNTVYLQMNSLKPEDTAVYYCNAVGHTSIRRALDILDYWGQVTQVTVSS”, “high polyreactivity”.
For “QVQLVESGGGLVQAGGSLRLSCAASGSIFARNAMGWSRQAPGKERELVAGISRRGGSTYYADSVKGRFTISRDNAKNTVYLQMNSLKPEDTAVYYCNAVVYSPPYDYWGQGTQVTVSS” the value was “high polyreactivity”; for “QVQLVESGGGLVQAGGSLRLSCAASGSIFARNAMGWYRQAPGKERELVAAISWSGGRTYYADSVKGRFTISRDNAKNTVYLQMNSLKPEDTAVYYCATDTWWGQGTQVTVSS”, “high polyreactivity”; for “QVQLVESGGGLVQAGGSLRLSCAASGSIFARNAMGWYRQAPGKERELVASITSNSGNTYYADSVKGRFTISRDNAKNTVYLQMNSLKPEDTAVYYCAADQLSDEYDYWGQGTQVTVSS”, “high polyreactivity”.
With “QVQLVESGGGLVQAGGSLRLSCAASGSIFARYAMGWYIQAPGKEREFVAAISRSGGSTYYADSVKGRFTISRDNAKNTVYLQMNSLKPEDTAVYYCAARGGTKYDYWGQGTQVTVSS”, the “polyreactivity (PSR sort gate)” value was “high polyreactivity”.
With “QVQLVESGGGLVQAGGSLRLSCAASGSIFARYAMGWYRQAPGKERELVAAISSDGSTYYADSVKGRFTISRDNEKNTVYLQMNSLKPEDTAVYYCNTQFRYPQKYDYWGQGTQVTVSS” the entry was “high polyreactivity”; with “QVQLVESGGGLVQAGGSLRLSCAASGSIFARYAMGWYRQAPGKERELVAAISSNSASTYYADSVKGRFTSSRDNAKNTVYLQMNSLKPEDTAVDYCATAYRSDWLNDYWGQGTQVTVSS”, “low polyreactivity”; with “QVQLVESGGGLVQAGGSLRLSCAASGSIFARYAMGWYRQAPGKERELVAALSGSGASTYYADSVKGRFTISRDNAKNTVYLQMNSLKPEDTAVYYCARPFLRRPTYRFETGYGYWGQGTQVTVSS”, “high polyreactivity”.
With “QVQLVESGGGLVQAGGSLRLSCAASGSIFARYTMGWYRQAPGKERELVARITSSGGSTYYADSVKGRFTISRDNAKNTVYLQMNSLKPEDTAVYYCAARYRRYVRFQGDYWGQGTQVTVSS” the entry was “high polyreactivity”; with “QVQLVESGGGLVQAGGSLRLSCAASGSIFASNAMGWYRQAPGKEREFVAAIRYSAGITYYADSVKGRFTISRDNAKNTVYLQMNSLKPEDTAVYFCSAYGWVNRWYSRFDYWGQGTQVTVSS”, “high polyreactivity”; with “QVQLVESGGGLVQAGGSLRLSCAASGSIFASNAMGWYRQAPGKERELVAAITTSGDSTYYADSVKGRFTISRDHAKTTVYFQMNSLKPEDTAVYYCATDKGWGLMDSWGQGTQVTVSS”, “low polyreactivity”.
Consider “QVQLVESGGGLVQAGGSLRLSCAASGSIFASNAMGWYRQEPGKEREFVAAITWRTDRTYYADSVKGRFTISRDNEKNTVYLQMNSLKPEDTAGYYCAADTWFYRFYYWGQGTQVTVSS”, for which the “polyreactivity (PSR sort gate)” value is “high polyreactivity”.
For the sequence “QVQLVESGGGLVQAGGSLRLSCAASGSIFASNTMGWYRQAPGKERELVAGITKIGSSTYYADSVKGRFTISRDNAKNTVYLQMNSLKPEDTAVYYGNADYYFSWGSIEDYWGQGTQVSVSS”, the “polyreactivity (PSR sort gate)” value is “low polyreactivity”.
For “QVQLVESGGGLVQAGGSLRLSCAASGSIFASYAMGWYRQAPGKERELVAAISRSGGSTYYADSVKGRFTISRDNAKNTVYLQMNSLKPEDTAVYYCATGKIREDDYWGQGTQVTVSS” the value was “high polyreactivity”; for “QVQLVESGGGLVQAGGSLRLSCAASGSIFATNTMGWYRQSPGKERELVATISSSDSTNYADSVKGRFTISRDNAKNTVYLEMNSLKPVDTAVYYCNKAYVDSTHGSYRWTYDYWGQGTQVTVSS”, “low polyreactivity”.
For “QVQLVESGGGLVQAGGSLRLSCAASGSIFATYAMGWYRQAPGKERELVAAITSSDGSTNYADSVKGRFTISRDNAKNTVDLQMNRLKPEDTAVYYCATDAPDRTDSDSGFDAGYDYWGQGTQVTLSS” the value was “low polyreactivity”.
With “QVQLVESGGGLVQAGGSLRLSCAASGSIFAVNAMGWYRQAPGKERELVAAITSGGNTYYADSVKGRFTISRDNAKNTVYLQMNSLKPEDTAVYYCATVFSVQGWYFGMNYWGQGTQVTVSS” the entry was “low polyreactivity”; with “QVQLVESGGGLVQAGGSLRLSCAASGSIFAVYAMGRYRQAPGKERELVASISRTGTTNYADSVKGRFTISRDNAKNTVYLQMNSLKPEDTAVYYCNADAYLYYKYHWGFTFYQYEYWGQGTQVTVSS”, “low polyreactivity”.
In the case of “QVQLVESGGGLVQAGGSLRLSCAASGSIFAVYAMGWYRQAPGKERELVATISGRGGSTYYADSVKVRFTISRDNAKNTVYLQMNSLKPEDTAVYYCNARVLFRRERMDSWGQGTKVTVSS”, the “polyreactivity (PSR sort gate)” value is reported as “high polyreactivity”.
Turning to “QVQLVESGGGLVQAGGSLRLSCAASGSIFAVYAMGWYRQAPGKERELVAVITRSGGSTYYADSVKGRFTISRDNAKNTVYLQMNSLKPEDTAVYYCAARRSYLLRYDYWGQGTQVTVSS”, the “polyreactivity (PSR sort gate)” value is recorded as “high polyreactivity”.
With “QVQLVESGGGLVQAGGSLRLSCAASGSIFAVYTMGWYRQAPGKEREFVAAITKSGGRTYYADSVKGRFTISRDNAKNTVYLQMNSLNPEDTAFYYCARRRTIPYTLVDYDSWGQGTQVTVSS” the entry was “low polyreactivity”.
On to “QVQLVESGGGLVQAGGSLRLSCAASGSIFAWYAMGWYRRAPGKESELVAAITWSGGSTYYADSVKGRFTISRDNAKNTVYLQMNSMKQEDTAVYYCAVEWYYRNNAIISGYYYWGKGTQVTVSS”, for which the “polyreactivity (PSR sort gate)” value was “high polyreactivity”.
